In this data set the target is GST-labeled ROR1 (intracellular domain), recombinant, purified from Sf9 insect cells (UniProt Q01973).
GST-labeled ROR1 (intracellular domain), recombinant, purified from Sf9 insect cells, sequence (Q01973 428-937): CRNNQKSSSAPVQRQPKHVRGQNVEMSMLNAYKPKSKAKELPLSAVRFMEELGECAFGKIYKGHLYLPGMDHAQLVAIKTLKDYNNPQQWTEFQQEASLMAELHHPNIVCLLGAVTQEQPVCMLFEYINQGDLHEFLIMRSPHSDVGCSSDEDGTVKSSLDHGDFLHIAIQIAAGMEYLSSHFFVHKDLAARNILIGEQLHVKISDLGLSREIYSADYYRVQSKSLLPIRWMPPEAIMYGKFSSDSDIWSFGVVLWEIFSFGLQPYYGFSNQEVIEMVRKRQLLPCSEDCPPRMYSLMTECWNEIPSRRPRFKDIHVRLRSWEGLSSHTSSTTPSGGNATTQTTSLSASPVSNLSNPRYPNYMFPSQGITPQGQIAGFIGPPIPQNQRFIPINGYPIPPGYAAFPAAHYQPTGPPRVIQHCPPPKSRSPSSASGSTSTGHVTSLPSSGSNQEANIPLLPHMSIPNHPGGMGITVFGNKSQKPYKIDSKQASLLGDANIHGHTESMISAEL

On to “endogenous c-Src (NCI-H1975, 293T, NCI-H23 cells)”, for which the “in vitro ROR1 kinase assay, western blot with anti-phospho-c-Src antibody (c-Src immunoprecipitated from NCI-H23 and 293T lysates as substrate)” value is “c-Src was phosphorylated by ROR1”.

The values are drawn from US20130338214.
